From PMC3970815 (Biochemistry, 2014)
Ends that are not written are not given here. fluorescein = fluorescein label, on the N-terminus

Target: T1, fluorescein-labeled consensus propeptide (FpCon)
T1 peptide: fluorescein-AVFLSREQANQVLQRRRR
Experiment: fluorescence polarisation

B1: Wild-type human gamma-glutamyl carboxylase (GGCX) with a carboxyl-terminal 12-amino acid epitope tag, embedded in DOPC/MSP1D1 nanodiscs (enzyme, UniProt P38435 1-758, looked up)
chain: MAVSAGSARTSPSSDKVQKDKAELISGPRQDSRIGKLLGFEWTDLSSWRRLVTLLNRPTDPASLAVFRFLFGFLMVLDIPQERGLSSLDRKYLDGLDVCRFPLLDALRPLPLDWMYLVYTIMFLGALGMMLGLCYRISCVLFLLPYWYVFLLDKTSWNNHSYLYGLLAFQLTFMDANHYWSVDGLLNAHRRNAHVPLWNYAVLRGQIFIVYFIAGVKKLDADWVEGYSMEYLSRHWLFSPFKLLLSEELTSLLVVHWGGLLLDLSAGFLLFFDVSRSIGLFFVSYFHCMNSQLFSIGMFSYVMLASSPLFCSPEWPRKLVSYCPRRLQQLLPLKAAPQPSVSCVYKRSRGKSGQKPGLRHQLGAAFTLLYLLEQLFLPYSHFLTQGYNNWTNGLYGYSWDMMVHSRSHQHVKITYRDGRTGELGYLNPGVFTQSRRWKDHADMLKQYATCLSRLLPKYNVTEPQIYFDIWVSINDRFQQRIFDPRVDIVQAAWSPFQRTSWVQPLLMDLSPWRAKLQEIKSSLDNHTEVVFIADFPGLHLENFVSEDLGNTSIQLLQGEVTVELVAEQKNQTLREGEKMQLPAGEYHKVYTTSPSPSCYMYVYVNTTELALEQDLAYLQELKEKVENGSETGPLPPELQPLLEGEVKGGPEPTPLVQTFLRRQQRLQEIERRRNTPFHERFFRFLLRKLYVFRRSFLMTCISLRNLILGRPSLEQLAQEVTYANLRPFEAVGELNPSNTDSSHSNPPESNPDPVHSEF
modifications: glycoprotein (glycosylation sites shown in Figure 3); disulfide bond between cysteine 99 and cysteine 450
stoichiometry N: 1 propeptide per GGCX-nanodisc
